Results taken from US12479895B2, “C-terminal CDNF and MANF fragments, pharmaceutical compositions comprising same and uses thereof” (MyNeuroCure Oy, priority 2018, dated 2025).

Key:
ER stressed SCG neurons = assay: Survival of tunicamycin-treated (ER stressed) SCG sympathetic neurons after microinjection; assay type: cell-based, mice; conditions: for survived neurons as % compared to neurons grown in the presence of NGF: Table 1A (FIG. 14), microinjected into cytoplasm, CDNF (400); for Fold change of survived neurons compared to neurons injected with PBS: data of Table 1 divided by values of PBS
Method in brief: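 Newborn mouse SCG neurons grown 5-6 days with 30 ng/ml NGF, then microinjected with CDNF (FL or C-terminal) plasmids (10 ng/ul, EGFP reporter) or proteins (200 ng/ul, Dextran Texas Red). Tunicamycin (2 μM) added next day. Fluorescent survivors counted blindly after 3 days as % of initial; compared with vector or PBS (ANOVA/Dunnett).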

rat 6-OHDA model of PD = assay: Neurorestoration study in 6-OHDA model of PD in rats; assay type: in vivo; conditions: injected intrastriatally 2 weeks after 6-OHDA lesioning; rotations at 2, 4, 6 and 8 weeks post-lesion
[1] = test system: SOD1-G93A mouse ALS model; assay: SOD1-G93A mouse model of ALS; assay type: in vivo
Description: Transgenic SOD1 G93A mice served as a transgenic mouse model for ALS in this study. Transgenic mice containing various human SOD1 mutations develop progressive neurodegeneration and motoneuron (MN) death, providing an animal model that has been commonly used for preclinical trials and that has greatly contributed to the understanding of FALS pathogenesis (Gurney et al., 1994). […] In these mice hind limb weakness and tremulous movement appear as initial symptoms at 8-10 week of age, followed by major symptoms such as progressive motor paralysis and neurogenic amyotrophy (Shibata 2001). These mice subsequently show disability of gait, eating and drinking and die within some weeks, usually at 14-16 week of age. The transgenic mice carrying the human SOD1 with the glycine93 to alanine mutated were originally obtained from The Jackson Laboratory (http://www.jax.org), Bar Harbor, ME; Strain B6SJL-TgN (SOD1-G93A) 1Gur). Transgenic expression was analyzed by DNA tail tests and PCR, using specific oligonucleotides and conditions as done previously by others (see homepage Jackson Lab). In all the experiments the wild-type B6SJL-TgN (SOD1) 2Gur were included as controls.
In the single administration experiment, mice at around 13 weeks of age received a single intracerebroventricular injection of PBS or C-CDNF (3.75 μg that is equimolar to full-length CDNF 10 μg diluted in PBS) under isofluorane anesthesia. Mice were then evaluated for signs of disease and body weight changes twice a week. Evaluation was completed by a battery of behavioral tests designed to assess motor activity in the mice; the battery comprises tests e.g rotarod.
In the chronic infusion experiment, 12-week-old SOD1 mice were inserted a brain infusion cannula (connected via catheter-tubing to an Alzet osmotic minipump) to the right lateral ventricle under isoflurane anesthesia. C-CDNF (1.5 μg/24 h) was infused for 28 days. Motor behavior was evaluated with rotarod. Mice were evaluated for clinical signs and body weight changes.
Clinical scoring for SOD1 mice was done using instructions from Jackson laboratory. The mice were carefully examined 2 times a week after they were 12 weeks old. Animals were scored by lifting them gently by the base of their tails and observing them for tremors, stiffness and their ability to extend their limbs. The clinical scoring is on a scale of 1 to 5, based on ALSTDI (ALS therapy Development Institute) hind limb neurological scoring system.
In rotarod, mice were put to a rotating rod (accelerating speed 4-40 rpm/minute), (Ugo Basile, Italy). Cut off time was 4 minutes. Rotarod test was done 2 times a week after the mice were 12 weeks old.

B1: KYEKTLDLASVDLRKMRVAELKQILHSWGEECRACAEKTDYVNLIQELAPKYAATHPKTEL (peptide, listed as Homo sapiens)
chain: KYEKTLDLASVDLRKMRVAELKQILHSWGEECRACAEKTDYVNLIQELAPKYAATHPKTEL
B1 was tested, and the “survived neurons as % compared to neurons grown in the presence of NGF” value (shortened to “survived neurons as %”) (ER stressed SCG neurons; AVG of exp1-2, tunicamycin 2 μM) was 84.37 % NGF, the “survived neurons as %” value (ER stressed SCG neurons; exp1, tunicamycin 2 μM, counted after 3 days) was 78.87 % NGF and the “survived neurons as %” value (ER stressed SCG neurons; exp2, tunicamycin 2 μM, counted after 3 days) was 89.87 % NGF. The “Fold change of survived neurons compared to neurons injected with PBS” value (“Fold change of survived neurons” for short) (ER stressed SCG neurons; Table 2, AVG) was 2.28 Fold to PBS, the “Fold change of survived neurons” value (ER stressed SCG neurons; Table 2, exp1) was 2.30 Fold to PBS and the “Fold change of survived neurons” value (ER stressed SCG neurons; Table 2, exp2) was 2.26 Fold to PBS. For the same molecule, the “rescue of ER stressed SCG sympathetic neurons (result in words)” value (ER stressed SCG neurons; expressed from microinjected plasmids, tunicamycin 2 μM, living fluorescent neurons counted after three days) was “rescue”, the “rescue of ER stressed SCG neurons (result in words)” value (ER stressed SCG neurons; protein or peptide microinjected into the cytoplasm, tunicamycin 2 μM, living fluorescent neurons counted after 3 days) was “rescue” and the “cumulative amount of amphetamine-induced rotations” value (rat 6-OHDA model of PD) was “significantly reduces”. For the same molecule, the “motor coordination (rotarod performance)” value ([1]; 4-week chronic intracerebroventricular infusion 1.5 μg/24 h, significant week 13 until week 19, p<0.01) was “improves motor coordination”, the “relative changes in body weight” value ([1]; 4-week chronic intracerebroventricular infusion 1.5 μg/24 h, weeks 18 and 19, p<0.05 vs PBS) was “Significant differences” and the “motor behavior (rotarod, latency to fall)” value ([1]; single intracerebroventricular injection 3.75 μg at 13 weeks, SOD1-G93A females, vs PBS) was “improves the motor behavior”. For the same molecule, the clinical score ([1]; single intracerebroventricular injection 3.75 μg at the age of 13 weeks, female animals, vs PBS) was “statistically significantly better clinical scores”.
